IntAct's records for PubMed 20190753

B1: Vacuolar protein sorting-associated protein 33B (Homo sapiens), Q9H267 (parent)
chain: MAFPHRPDAPELPDFSMLKRLARDQLIYLLEQLPGKKDLFIEADLMSPLDRIANVSILKQHEVDKLYKVENKPALSSNEQLCFLVRPRIKNMRYIASLVNADKLAGRTRKYKVIFSPQKFYACEMVLEEEGIYGDVSCDEWAFSLLPLDVDLLSMELPEFFRDYFLEGDQRWINTVAQALHLLSTLYGPFPNCYGIGRCAKMAYELWRNLEEEEDGETKGRRPEIGHIFLLDRDVDFVTALCSQVVYEGLVDDTFRIKCGSVDFGPEVTSSDKSLKVLLNAEDKVFNEIRNEHFSNVFGFLSQKARNLQAQYDRRRGMDIKQMKNFVSQELKGLKQEHRLLSLHIGACESIMKKKTKQDFQELIKTEHALLEGFNIRESTSYIEEHIDRQVSPIESLRLMCLLSITENGLIPKDYRSLKTQYLQSYGPEHLLTFSNLRRAGLLTEQAPGDTLTAVESKVSKLVTDKAAGKITDAFSSLAKRSNFRAISKKLNLIPRVDGEYDLKVPRDMAYVFGGAYVPLSCRIIEQVLERRSWQGLDEVVRLLNCSDFAFTDMTKEDKASSESLRLILVVFLGGCTFSEISALRFLGREKGYRFIFLTTAVTNSARLMEAMSEVKA
partner: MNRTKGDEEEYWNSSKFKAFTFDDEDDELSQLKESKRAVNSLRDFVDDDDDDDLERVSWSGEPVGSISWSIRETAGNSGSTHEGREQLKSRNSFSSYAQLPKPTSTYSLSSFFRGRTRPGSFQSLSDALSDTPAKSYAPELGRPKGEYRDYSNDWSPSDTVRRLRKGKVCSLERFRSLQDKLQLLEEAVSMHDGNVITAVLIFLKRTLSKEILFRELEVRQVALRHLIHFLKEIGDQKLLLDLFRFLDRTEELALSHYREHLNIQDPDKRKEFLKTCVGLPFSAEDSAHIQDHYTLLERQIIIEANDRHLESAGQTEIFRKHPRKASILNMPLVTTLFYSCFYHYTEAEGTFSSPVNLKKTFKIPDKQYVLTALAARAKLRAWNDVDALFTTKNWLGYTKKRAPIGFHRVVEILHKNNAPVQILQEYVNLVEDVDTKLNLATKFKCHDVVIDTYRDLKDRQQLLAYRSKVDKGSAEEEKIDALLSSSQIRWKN

Variants of: B1
Conditions: with spe39_human VIPAS39, Q9H9C1

| effect of a mutation on the interaction | Variant |
| --- | --- |
| decreasing interaction | L30P |
